Data on one sequence can be found in publication PMC7862519.

Data set [1] concerns the target D2N (D2 without his tag) (Geobacillus stearothermophilus T-6) (UniProt B3EYN2). Briefly: reflectometric porous-silicon aptasensor (real-time EOT). The note with it: 1 uM protein, 5'-amino, Selection buffer: 50 mM K2HPO4, 150 mM NaCl, pH 7.4, flow 30 uL/min for 1 h, temperature not stated, elution with 1 M imidazole.
The target of data set [2] is D2 (his-tagged domain 2 of extracellular endo-alpha-(1->5)-L-arabinanase 1) (Geobacillus stearothermophilus T-6) (UniProt B3EYN2). The description is as above. The note with it: 5'-amino, Selection buffer: 50 mM K2HPO4, 150 mM NaCl, pH 7.4, flow 30 uL/min for 1 h, temperature not stated, elution with 1 M imidazole.

In the case of “GCTATGGGTGGTCTGGTTGGGATTGGCCCCGGGAGCTGGC [anti-his tag aptamer 6H7]”, the binding signal (relative dEOT/EOT0 x10^-3) was determined as 1.7 in data set [1] (PDMS microfluidic, ascribed to non-specific adsorption); 0.8 in data set [1] (3D-printed microfluidic); 1.6 in data set [2] (0.25 uM protein, 3D-printed microfluidic); 2.3 in data set [2] (0.5 uM protein, 3D-printed microfluidic, reused sensor); 4 in data set [2] (1 uM protein, 3D-printed microfluidic, released by 1 M imidazole); 3.2 in data set [2] (1 uM protein, PDMS microfluidic, signal partly non-specific adsorption).
